Residue numbers refer to the chain shown, from its start.

Broadly, the stoichiometry N is the number of molecules, sites or subunits per partner or assembly.

Series [1] concerns the molecule itself. In words: negative stain electron microscopy of polymers.
The target in series [2] is T1, full-length, human CHMP7 (human, UniProt Q8WUX9 1-453).
T1 sequence (looked up): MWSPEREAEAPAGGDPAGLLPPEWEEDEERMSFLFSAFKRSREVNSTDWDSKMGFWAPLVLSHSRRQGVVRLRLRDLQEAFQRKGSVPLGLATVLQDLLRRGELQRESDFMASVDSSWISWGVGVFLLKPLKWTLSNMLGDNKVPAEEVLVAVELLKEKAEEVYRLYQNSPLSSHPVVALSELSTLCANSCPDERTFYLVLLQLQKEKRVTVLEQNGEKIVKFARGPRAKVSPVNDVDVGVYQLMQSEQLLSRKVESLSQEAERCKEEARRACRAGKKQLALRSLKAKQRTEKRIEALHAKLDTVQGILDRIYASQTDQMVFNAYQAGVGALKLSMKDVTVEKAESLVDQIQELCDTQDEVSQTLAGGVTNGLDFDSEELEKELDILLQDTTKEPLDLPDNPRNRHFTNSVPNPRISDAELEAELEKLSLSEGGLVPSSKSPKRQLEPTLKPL
In words: co-sedimentation.

Series [3] addresses T2, CHMP7_(R270E+I312E) (human, UniProt Q8WUX9 1-453, R270E | I312E).
T2 sequence (looked up): T1 sequence (looked up) with R270E, I312E
In words: co-sedimentation.

In series [4] the target is T3, CHMP7_(R270E+V339D) (human, UniProt Q8WUX9 1-453, R270E | V339D).
T3 sequence (looked up): T1 sequence (looked up) with R270E, V339D
In words: co-sedimentation.

The target of series [5] is T4, CHMP7_(I312E+V339D) (human, UniProt Q8WUX9 1-453, I312E | V339D).
T4 sequence (looked up): T1 sequence (looked up) with I312E, V339D
In words: co-sedimentation.

B1: CHMP7_(ESCRT-III) (AA:229–453) (domain or fragment, human, UniProt Q8WUX9 229-453, looked up)
chain: AKVSPVNDVDVGVYQLMQSEQLLSRKVESLSQEAERCKEEARRACRAGKKQLALRSLKAKQRTEKRIEALHAKLDTVQGILDRIYASQTDQMVFNAYQAGVGALKLSMKDVTVEKAESLVDQIQELCDTQDEVSQTLAGGVTNGLDFDSEELEKELDILLQDTTKEPLDLPDNPRNRHFTNSVPNPRISDAELEAELEKLSLSEGGLVPSSKSPKRQLEPTLKPL
As to B1, the binding result in series [1] is “binds”.

B2: WH domain of LEM2 (LEM2WH; AA:395–503) (domain or fragment, human, UniProt Q8NC56 395-503, looked up)
chain: ILLKYRWRKLEEEEQAMYEMVKKIIDVVQDHYVDWEQDMERYPYVGILHVRDSLIPPQSRRRMKRVWDRAVEFLASNESRIQTESHRVAGEDMLVWRWTKPSSFSDSER
For the molecule B2, the “stoichiometry N” value in series [2] is 1. Moreover, the binding result in series [3], in series [4] and in series [5] was “binds” each time.

These data come from PMC7321842 (Nature, 2020).
